For the test, the target named is detyrosinated microtubules (rat cardiomyocytes) (rat). Nature of the test: cell-based or functional assay.

In turn, “human tubulin tyrosine ligase (TTL) (from UniProt Q8NG68 1-377)” displayed a Detyr (% cell area), immunofluorescence, TTL overexpressing cells (null: 43.9) of 12.9 % cell area.

For the origin of these results see US20180326022A1, “COMPOSITIONS AND METHODS FOR IMPROVING HEART FUNCTION AND TREATING HEART FAILURE” (The Trustees of the University of Pennsylvania, priority 2017, published 2018).
